Experimental data from paper doi:10.64898/2025.12.30.697132.
Read-outs that look alike come from different tables or passages of the source.

Experiments:
XCL1 R23A,R43A (human) [1] = target: XCL1 R23A,R43A (human) (UniProt P47992); experiment: 19F NMR
XCL1 R23A,R43A (human) [2] = target: XCL1 R23A,R43A (human) (UniProt P47992); experiment: 19F NMR; remark: listed apart in the source

XCL1 R23A,R43A (from UniProt P47992 22-93) (domain or fragment)
percent of the protein in the dimer fold (XCL1 R23A,R43A (human) [1]): 20%
percent of the protein in the dimer fold (XCL1 R23A,R43A (human) [2]): 26%
